Test results as given in paper PMC12462935, “TRIM21‐Mediated K11‐Linked Ubiquitination of ID1 Suppresses Tumorigenesis and Promotes Cuproptosis in Esophageal Squamous Cell Carcinoma” (Advanced Science, 2025).

Target: T1, TRIM21-His protein (UniProt P19474 1-475)
T1 construct: TRIM21-His protein, Sino Biological 18010-H07B; also called recombinant TRIM21; source: bought: Sino Biological (18010-H07B)
Assay: pull-down; TRIM21-His incubated with GST-ID1 or GST at a 3:1 molar ratio in lysis buffer; captured with anti-GST antibody at 4 °C overnight, then Protein A/G beads 4 h; immunoblot
Conditions: both partners purified

binding result: binds
B1: GST-ID1 (natural protein, UniProt P41134 1-155, looked up)
chain: MKVASGSTATAAAGPSCALKAGKTASGAGEVVRCLSEQSVAISRCAGGAGARLPALLDEQQVNVLLYDMNGCYSRLKELVPTLPQNRKVSKVEILQHVIDYIRDLQLELNSESEVGTPGGRGLPVRAPLSTLNGEISALTAEAACVPADDRILCR
notes: also called recombinant ID1; source: cloned into pGEX-6p-2 with a GST tag and purified
